Common to all, as to test: split reporter (BiFC, NanoBiT); protein fragment complementation assay (split luciferase): GLuc1-AP μ subunit and GLuc2-HCV protein transfected pairwise into 293T cells; luciferase at 24 h; normalized luminescence ratio (NLR), positive if NLR >25 (>2.2 SD above a random reference set); mutant panels plotted relative to WT; NS2-AP-1B also tested after treatment with compound 7745, 12i, sunitinib or erlotinib

The target in test [1] is GLuc1-tagged μ subunit of the AP-4 complex (UniProt O00189).
Chain of GLuc1-tagged μ subunit of the AP-4 complex (O00189 whole entry, one chain of several): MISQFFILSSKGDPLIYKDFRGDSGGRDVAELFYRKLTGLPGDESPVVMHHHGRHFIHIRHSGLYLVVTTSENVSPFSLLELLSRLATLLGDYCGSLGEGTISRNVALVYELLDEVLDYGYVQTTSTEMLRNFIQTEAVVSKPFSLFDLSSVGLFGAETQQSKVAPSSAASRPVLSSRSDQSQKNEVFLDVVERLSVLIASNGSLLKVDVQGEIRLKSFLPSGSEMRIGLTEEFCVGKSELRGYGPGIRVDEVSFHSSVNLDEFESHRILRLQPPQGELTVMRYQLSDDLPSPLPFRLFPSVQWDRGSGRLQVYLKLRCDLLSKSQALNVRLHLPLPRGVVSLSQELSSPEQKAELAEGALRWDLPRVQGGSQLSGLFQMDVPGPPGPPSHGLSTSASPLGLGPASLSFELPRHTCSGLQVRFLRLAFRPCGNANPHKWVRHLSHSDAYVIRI
The target of test [2] is T1, GLuc-tagged T144A mutant AP-1B (μ subunit) (UniProt Q9Y6Q5 1-423, T144A).
T1 construct: μ subunit of adaptor protein complex AP-1B with T144A; also called phosphorylation site mutant AP-1; source: transfected cells (PCA); not shown: GLuc1 luciferase fragment, N-terminal, kept
T1 sequence: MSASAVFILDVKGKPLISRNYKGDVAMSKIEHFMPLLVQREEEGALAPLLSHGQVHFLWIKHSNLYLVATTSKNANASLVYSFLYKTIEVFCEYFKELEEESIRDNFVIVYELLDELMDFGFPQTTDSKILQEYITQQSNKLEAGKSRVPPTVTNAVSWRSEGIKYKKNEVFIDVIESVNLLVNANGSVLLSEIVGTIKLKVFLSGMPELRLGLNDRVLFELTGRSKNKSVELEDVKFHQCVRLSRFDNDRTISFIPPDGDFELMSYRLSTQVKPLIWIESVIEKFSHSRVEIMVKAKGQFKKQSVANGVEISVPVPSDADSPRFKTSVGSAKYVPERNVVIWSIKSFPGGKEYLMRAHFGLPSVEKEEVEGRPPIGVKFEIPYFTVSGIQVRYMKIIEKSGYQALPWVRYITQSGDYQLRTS
The settings on record: partners not purified.

The target in test [3] is T2, GLuc-tagged T144A mutant AP-1A (μ subunit) (UniProt Q9BXS5 1-423, T144A).
T2 construct: μ subunit of adaptor protein complex AP-1A (AP1M1) with T144A; also called phosphorylation site mutant AP-1; source: transfected cells (PCA); not shown: GLuc1 luciferase fragment, N-terminal, kept
T2 sequence: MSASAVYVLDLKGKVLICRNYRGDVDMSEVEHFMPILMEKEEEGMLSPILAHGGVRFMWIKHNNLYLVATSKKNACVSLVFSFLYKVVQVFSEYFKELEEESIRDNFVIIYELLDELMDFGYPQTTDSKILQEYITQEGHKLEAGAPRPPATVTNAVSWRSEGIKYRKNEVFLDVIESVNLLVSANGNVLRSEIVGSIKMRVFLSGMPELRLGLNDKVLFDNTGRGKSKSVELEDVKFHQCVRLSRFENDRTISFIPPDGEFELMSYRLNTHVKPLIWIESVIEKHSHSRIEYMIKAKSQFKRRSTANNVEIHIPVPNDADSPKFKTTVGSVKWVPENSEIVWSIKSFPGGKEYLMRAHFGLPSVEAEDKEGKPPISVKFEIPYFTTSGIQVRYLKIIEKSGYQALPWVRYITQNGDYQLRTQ
Conditions: partners not purified.

For the molecule “GLuc-NS2 double mutant (L202A-L217A) (natural protein)”, the fold reduction of binding (NLR) relative to WT NS2 in test [1] was found to be 3 fold.

With “GLuc-NS2 quadruple mutant (L202A-L203A-L216A-L217A) (natural protein)”, the fold reduction of binding (NLR) relative to WT NS2 in test [1] is 4 fold.

B1: GLuc2-NS2 (hepatitis C virus nonstructural 2 protein, wild type) (natural protein)
chain: YDASVHGQIGAALLVLITLFTLTPGYKTLLSRFLWWLCYLLTLAEAMVQEWAPPMQVRGGRDGIIWAVAIFCPGVVFDITKWLLAVLGPAYLLKGALTRVPYFVRAHALLRMCTMVRHLAGGRYVQMVLLALGRWTGTYIYDHLTPMSDWAANGLRDLAVAVEPIIFSPMEKKVIVWGAETAACGDILHGLPVSARLGREVLLGPADGYTSKGWSLL
notes: cut product of the polyprotein; also called WT NS2; GLuc-NS2; source: 293T, transfected (PCA); Huh7.5, transfected, membrane fraction (co-IP) and knockout cells (PCA); not shown: GLuc2 luciferase fragment, N-terminal, kept
Take B1: in test [2], the “fold reduction of binding (NLR) relative to WT AP-1B” value was approximately 2 fold. The “fold reduction of binding (NLR) relative to WT AP-1A” value in test [3] is approximately 2 fold.

The values are drawn from paper PMC5850324, “Interactions between the Hepatitis C Virus Nonstructural 2 Protein and Host Adaptor Proteins 1 and 4 Orchestrate Virus Release” (mBio, 2018).
